Laboratory results taken from publication doi:10.1101/2023.02.03.527086.

Biological target: T1, interferon regulatory factor 3 (IRF3) (human (endogenous in AC16)), Q14653
T1 chain: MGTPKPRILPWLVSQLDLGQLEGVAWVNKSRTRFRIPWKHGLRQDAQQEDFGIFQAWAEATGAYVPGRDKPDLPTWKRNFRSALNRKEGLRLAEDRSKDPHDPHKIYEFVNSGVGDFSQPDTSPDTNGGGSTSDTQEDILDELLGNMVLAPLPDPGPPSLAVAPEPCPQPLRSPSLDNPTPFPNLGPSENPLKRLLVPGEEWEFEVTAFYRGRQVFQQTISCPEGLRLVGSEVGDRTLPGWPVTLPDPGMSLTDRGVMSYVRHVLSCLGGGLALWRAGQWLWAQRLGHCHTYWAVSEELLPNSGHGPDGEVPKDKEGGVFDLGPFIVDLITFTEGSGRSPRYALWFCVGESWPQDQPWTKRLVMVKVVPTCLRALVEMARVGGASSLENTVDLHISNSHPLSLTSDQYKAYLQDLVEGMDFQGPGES
Assay: native gel or EMSA
Conditions: remark: other sources report otherwise

B1: interferon regulatory factor 3 (IRF3), Q14653 1-427 (natural protein)
chain: MGTPKPRILPWLVSQLDLGQLEGVAWVNKSRTRFRIPWKHGLRQDAQQEDFGIFQAWAEATGAYVPGRDKPDLPTWKRNFRSALNRKEGLRLAEDRSKDPHDPHKIYEFVNSGVGDFSQPDTSPDTNGGGSTSDTQEDILDELLGNMVLAPLPDPGPPSLAVAPEPCPQPLRSPSLDNPTPFPNLGPSENPLKRLLVPGEEWEFEVTAFYRGRQVFQQTISCPEGLRLVGSEVGDRTLPGWPVTLPDPGMSLTDRGVMSYVRHVLSCLGGGLALWRAGQWLWAQRLGHCHTYWAVSEELLPNSGHGPDGEVPKDKEGGVFDLGPFIVDLITFTEGSGRSPRYALWFCVGESWPQDQPWTKRLVMVKVVPTCLRALVEMARVGGASSLENTVDLHISNSHPLSLTSDQYKAYLQDLVEGMDFQGPGES
Work on B1 yielded a stoichiometry N of 2.
